Test results from the domain aggregation screens of Martell et al. (2025).

Assay: soluble fraction after stress (log2 fold change); higher = more stays soluble; pooled small domains, quantitative proteomics
Conditions: stress: 50 degC
Procedure, shortened: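 Pooled custom libraries of small protein domains were measured in a high-throughput format, with quantitative proteomics as the read-out. Each library was stressed at 50°C. Aggregation propensity is given as the base-two logarithm of the fold change in how much of each protein stays soluble after the stress. Higher values mean a larger share of the protein remains in solution.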

| Sequence | soluble fraction (log2) |
| --- | --- |
| HMPLQLPEPMAELARNGETARLAEALKQGLDIDLRDGKGNTLLMIAAYQGRAETVAMLLKAGA | -1.71 |
| HMPLSLESVSEGGRNDTAARIAGYLIAKGLNVDFARFFLQSWNTKNKPPLDDTEIDTIVNSIMKTHERKNQ | -0.361 |
| HMPLTPATADAGRFVKQDRKYIRLLAKRYNFTHGDIKSEIDRVSAVLSSNGIDRVPLFLYKEYLEQYLAG | -1.85 |
| HMPLTRSDVKRIQLWLMAHGYDIGSPDGVFGDKSNRAANAFLSQQGRSLETVTLGKLYDILEAN | -2.01 |
| HMPMINLYQRLNLPPTASRAEIEAALAQYRSELSTAEIRGVQEWLLVNEVRHRYDAKLRQEQPSFFI | -0.471 |
| HMPMTLGENIARLRTQKDWSQGDLADALGISRQSISKWETDTSIPELEKLIKLSELFGVTLDQLVRGE | -0.193 |
| HMPNILLSVKDASVAISVSSKMVRLLIASGRLKAVNLGKRMTRISLQELTDFAQRQGGNVVLP | -0.147 |
| HMPNLAAAIGARVTIRLREASGGFRDIVGTLQRFGDGVNELLNSKGQIISFSEDEIAIWREIK | -0.816 |
| HMPNQIKQIAVNTASVSDIATIPGISFDFAKEIWEFRILRQKIGSLSELQKIEGMTASKYALIELYLHI | -3.37 |
| HMPNSIKAPAYLHNIARIYDHVLIDVEKASSAYEKLIKKYPNHPLSINAKLYLENAFNRSDEELLNMIKEN | -0.798 |
| HMPNYVEMLRLHEAGFSLRQIAKLVSSGRNTVTRTVNIAQEKELSYEEIAQWSSEELENMFKPD | -1.68 |
| HMPPDIKVVGVTVASDPRASFAMLSSNGKTLSYRVNDLIEGTEYHLIKVEAAAITIATAGGQSTQIAF | -0.585 |
| HMPPFTYHLERAKRKTVGFIVDERGVTVRAPRWVSVSEIEKMLQTKEAWIQKKLTEFHNWQKE | -3.11 |
| HMPPHGHIVELLPEQDFGRIETGDGRLVYFHRNSVLDGDFAQLAVGDAVRFAEEMGERGPQASSVHVE | 0.0967 |
| HMPPLKYLKVKSYLEAVAVKAESAMRMPTVRELMNQFNVSLATVNRALSELENDGVIVRRQGSGIVAAG | 0.147 |
| HMPPSGPWEQDPPSEAQLKPFNEAMKRTADIDVDLYEKAKKALNDGTITKGNIYDWINREDSPWVLQDGS | 0.141 |
| HMPPSQRVNRILSLAGITSRRKADEYILEGRVTVNGEVLKEPGAKAVWGTDDIRVDGKPIPALS | 0.1 |
| HMPPSVAETLKRLRRHKSLSLEELAQMSGVSRSMLSQIERDATNPTVATLWRITAALGVSIDEVLGV | -1.87 |
| HMPPTEQVYRSHVPPQYDGFPIEKYFTTRFSYQDVEEWSRQILAGKIEVNGKTALIGQILSASDLTVTRA | -0.855 |
| HMPQETPIPKSEIQSYDEIWLEPISTDNILRNELRGWYHVKDRWVENEFGNRFYLDTYASKWLAFPS | -0.0557 |
| HMPQKIVIQKGVVIKKRERSDAWQIYITVKGKKPIRKSANTDNVEKAKQMALTLFAEKNYKVENNLPIQ | -1.18 |
| HMPQLSNEEQKIVDALEGSDGKQINLITVETNIPMARLMSVLFEMEMRGIVKSLNGARYKLN | -0.163 |
| HMPQTDDSEPLGKYGRMRLAYLKNQRPVLYNQMLLNGTLWPHLQDVQKTAYEWLERTMTTLLDK | -0.0745 |

| Sequence | soluble fraction (log2) |
| --- | --- |
| HMPRDQQENIYLLEKGKRLYEEHLGDQRQIIGHRIMIFERILESQDHAQIRRAQSEFAEFLSHYDG | -0.229 |
| HMPRDYYAVLEVSVSSTPVQIRQAYQRLARRYSPDVNFLDRDTEALFEEIVEAYRVLSNPTARTLYDRG | -4.48 |
| HMPREQQENVYLLEKAKRLYEEYLGDQRQTIGHALAQFERVLESQDPAAIRRAQKEFGEFLERYDG | 0.102 |
| HMPREVKLPPDLLDALEASPEAKAFFLQLSYTHQKEYAQWIEEAKQEATRQRRLEKTVQMLLEGRRT | -0.0798 |
| HMPRFDINFKVGEVVTIKGGSFDGQQGEISEIDHEHGKIKVMLEVLGRLTPVEVEHTEIEKI | 0.176 |
| HMPRKLDDQLQEQIRYLKSNYPRMSAAGIFRQLQDNGSIKHGDVSESTINRYVNLLSIEMKTTT | -0.223 |
| HMPRNMTFAIRGEYITLDALLKAVGAADSGAQAKHRIAEGEVTVDGVVETRKTRKLRGGETVVVDDLAVVL | -0.272 |
| HMPRQREVPDVSGWTEQHAKVYLEALGYRVKVIYLEVSSFDKGLVQETSPAKGSKVEEGDTIDLRVSNQE | -0.367 |
| HMPRSLGADLRAIRKGRRLTLTDMAEALDRSVGWVSQVERDISTPSISDLRRMAEILDVPVSLLFG | -2.87 |
| HMPSARELLATNIVRLRKEKGWSQEDLALEAGLHRTFVAHVERHARNISLDNIERLANALQVNVHILLL | -3.79 |
| HMPSEDELAERLRGAIRQGDILNEGRMPPERALAEHFGVSRARLRLALGLLQEDGTIYRRHGQGTFAT | -0.132 |
| HMPSIGKNILYYRKKRNMTIDELSKKSGVSKSMLSQVEQEKTNPTVVTVWKIARSLDVSINQLLQT | -0.489 |
| HMPSKKHARWIELEARKFMADNEDAVSDLHELRTRAANFAALKTSTLPVDQHRAIVAGFVARVNELGRRI | -0.631 |
| HMPSLSPDETVVVDALRQQNDMQINMISVKTNLPIARLSAILFEMELKGVLKPLAGGVYHLL | -0.316 |
| HMPSPEMLKETEKRKAEEIYRSQINLFIDDYHRLKGQYPLLEDIIDNKKDSIPIEILREISISILKNYFE | -0.242 |
| HMPSPEVELLEDLLSKTDEAEVEAAFHENQALVNDEFKAMLGSLIQELSKTQEADPEIIARIRFIQKLT | 0.16 |
| HMPSREDFAYDSIKEAILSGELLPNQKISLSDLANKLGISIIPVNSAVGRLVAEGLVRQDPHHSPYVV | 0.345 |
| HMPSRPIQVASFSKEDNAKRAAEALAKIGVTATPQKSEKAGKAVWGVVVTGDDAMLQKIKDAGFADAYFL | 0.0921 |
| HMPSTKDGIKEFLSSGAMKGIGRKTASAIVSRFGIDTLKIIEQEPQRLTEVSGIGKKTAQRIAEAFGKH | -0.103 |
| HMPSTVRVPDVAETSLSEAKKTIEESGLEVGAIHKVNNDTVKKNHVIKTSPTIGSAKKEGSAIDIYVSKG | -0.0128 |
| HMPSTVSVPDVAGSSLSEAKTTIKSSGLKVGTVHKVSSDTVESGYVIKTSPTAGSSKKEGSSIDIYVSKG | 0.432 |
| HMPTANFPAMAEALKKQYGPPTGEEETSWTHRLGGVFDIKIQSWNTPQGEMVLRSRGAAMDAGML | 0.439 |
| HMPTEPTARELEVTTLLAQGLSNREIAGALFISEHTVRNHLGHVFSKLGVSSRTQAVVRAGQLGWLR | -2.14 |

| Sequence | soluble fraction (log2) |
| --- | --- |
| HMPTKSDLLQWIKDRASKMGGAFTNSGAYALADAGVDGPRALSSEINKLLTYVNWERSVEADDVIRL | -0.13 |
| HMPTLTPFDVARIENAINPRLNLETAAKLKPWIAAGYTAQETADGTGFSPDTVKKYAAIFRK | 0.103 |
| HMPTQTEELRRRIVADVNAGEPGAKLGSERELAERYGTSRSSLRQVLAALQEAGLIDRVIGRSGGIFISH | -0.0372 |
| HMPTSILEKILNSAAEQFTRYGFKTITMDDIARHAGVSKKTLYQHFETKLDIIVAAVTHFHTMKF | -0.718 |
| HMPTYEEAKTYLKAAFEHIVAAGRDVGELVEFAFAKSGDAVAPYLRRFLSDVHEGRITIQGLTESAKLAV | 0.206 |
| HMPVEQVWHIAEAGKTKGPFSRASMGRMSADGALTRDTLVWTAGQDGWKKAADVTALATLFT | -0.0223 |
| HMPVFYATNRQKTTIHNLKRKKGLDDDAYRATIYSFTHGRTDSSKYMYKYEAAELIQKWLDPE | -1.7 |
| HMPVGVPGVVYNTDSLNVRKGAGTNYDIVSKLKRGSVIEVLEQTAVDGTVWGRIAEGWVNMEYVSL | -0.43 |
| HMPVSDLQSALRNTLSKGDATDPAFRQRVYRAAMDALERATGSESDPQRRSEQKQRLIAVIRDMEASYRR | 0.277 |
| HMPVTKSARQSRIGELIAREPVRSQSELAARLADDGIVVSQGTLSKDLLELGAVRVRTSSGELAYALL | -0.18 |
| HMPWLIAVTVDGVNLPRFLRRAGEMGLLLTGVRIRGKHLSAFAREDDVPPLRMMAENGGWRFSVGN | -1.61 |
| HMPYEHQRAVGALIRRLREQQGWSQRALADWVHMDQSAVSRVETGQRSVTAEELGRFADALHVSTDALVR | -0.291 |
| HMPYFLKQSNTRSKGLYLQIYHSFYVPGKGSRNKSYKAIGYVSELIKNGIEDPITYAKNLVDELNNNSSTP | -3.75 |
| HMPYPSPADLARMDELIAWVKDEGRLPRDRSGQRSERSMARWLAARRREAAEGTLDPAYRDGLAQVPGWR | -0.368 |
| HMPYSAAVTFLDDAKQPMVNYNYRLIAENGIEVSGITDEFGKTQPIQTDQREKVDLYIADLPN | 0.495 |
| HMQAALEVQASAGVLAPVPPDQRQALLDTLAQDPRPGYQHEAGRVYGFPFGGFEVRFTVSDGLLTVLSAYK | -1.7 |
| HMQAATQVNIVGLFSNKAVVIINGGKPKTLSVGQTSEGVKLLAADSQTATLQIEGKTQQLGMGQAASVGG | 0.134 |
| HMQAESLTVVRSAELKADRFLDAATLQTLQTGQVVESLRTESGWVQVRIAGQQGWVRAMNVKGA | -0.459 |
| HMQAITVNNEGKIFLNTIPVTLEELSSKLESLKSSTPEFPVVIRGDSGSQYQGIMDVLNVVGRLGITQIGL | -0.246 |
| HMQAKDVEVPDYVGKSFVSIKENNPNDFKFEVKSEYDESKEMGVILDQEPKGGSMKVKSGSTITVTV | -0.0106 |
| HMQASPADLLSDRELEVFQLTGEWKTTRQIAQELHLSVKTIEYYREQIKRKLNLKSAAELTQHATAWVQRG | -0.361 |
| HMQDAVASEKIQLMSEALHARDTGDLLLAKEKVEKLIALAPNDKNIQALLLTINQSIEDKGL | 0.101 |
| HMQDIDIVDLKRISELIYQKYNYDFRNYAMSSFKRRVQRIIELKKLTVDGLIKRLNDTPSFINEFLDELTV | -0.139 |
